Data on one molecule can be found in patent publication US12187779B2 (dated 2025).

This test addresses T1, HPV 16 E6 peptide on HLA-A*02:01 (human).
T1 peptide: TIHDIILECV
The experiment in a line: multimer staining.

B1: E6 TCR (TCR, V domains shown)
Valpha: GQQLNQSPQSMFIQEGEDVSMNCTSSSIFNTWLWYKQDPGEGPVLLIALYKAGELTSNGRLTAQFGITRKDSFLNISASIPSDVGIYFCAGHPSSNSGYALNFGKGTSLLVTP
Vbeta: GAGVSQSPRYKVTKRGQDVALRCDPISGHVSLYWYRQALGQGPEFLTYFNYEAQQDKSGLPNDRFSAERPEGSISTLTIQRTEQRDSAMYRCASSSQTGARTDTQYFGPGTRLTVL
Consider B1, for which the binding result is on record as “recognises”.
